From article PMC3656124, “DNA Topoisomerase II Is Involved in Regulation of Cyst Wall Protein Genes and Differentiation in Giardia lamblia” (PLoS Neglected Tropical Diseases, 2013)

T1: Topo IIC (Giardia lamblia, UniProt E2RU90 489-1491)
T1 sequence: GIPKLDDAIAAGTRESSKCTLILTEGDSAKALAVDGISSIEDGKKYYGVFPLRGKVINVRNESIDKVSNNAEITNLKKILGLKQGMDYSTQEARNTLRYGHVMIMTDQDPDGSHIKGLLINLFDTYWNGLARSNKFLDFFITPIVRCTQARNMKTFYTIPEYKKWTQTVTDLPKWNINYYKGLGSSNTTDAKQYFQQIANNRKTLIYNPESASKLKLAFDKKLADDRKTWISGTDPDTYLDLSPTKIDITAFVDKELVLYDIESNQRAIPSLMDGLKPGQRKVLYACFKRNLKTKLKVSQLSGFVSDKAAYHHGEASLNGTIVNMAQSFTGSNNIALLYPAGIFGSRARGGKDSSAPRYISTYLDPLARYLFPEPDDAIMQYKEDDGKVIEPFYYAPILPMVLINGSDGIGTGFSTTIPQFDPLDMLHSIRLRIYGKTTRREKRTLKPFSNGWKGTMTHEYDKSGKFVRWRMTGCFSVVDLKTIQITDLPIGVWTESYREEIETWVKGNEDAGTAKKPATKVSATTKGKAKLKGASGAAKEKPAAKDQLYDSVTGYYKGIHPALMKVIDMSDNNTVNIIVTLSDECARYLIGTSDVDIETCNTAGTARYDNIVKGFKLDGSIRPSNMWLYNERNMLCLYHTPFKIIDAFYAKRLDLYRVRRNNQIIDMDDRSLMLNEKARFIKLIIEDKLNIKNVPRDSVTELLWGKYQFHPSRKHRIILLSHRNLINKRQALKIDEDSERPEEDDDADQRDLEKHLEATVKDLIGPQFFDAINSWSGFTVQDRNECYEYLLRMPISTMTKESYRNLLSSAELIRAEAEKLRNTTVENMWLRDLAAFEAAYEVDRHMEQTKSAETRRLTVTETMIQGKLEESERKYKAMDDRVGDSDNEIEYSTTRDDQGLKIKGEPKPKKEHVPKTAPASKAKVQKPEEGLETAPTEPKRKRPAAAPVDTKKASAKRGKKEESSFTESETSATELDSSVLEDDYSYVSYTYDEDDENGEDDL

T2: Myb2 (Giardia lamblia, UniProt Q8ISM2 1-530)
T2 sequence: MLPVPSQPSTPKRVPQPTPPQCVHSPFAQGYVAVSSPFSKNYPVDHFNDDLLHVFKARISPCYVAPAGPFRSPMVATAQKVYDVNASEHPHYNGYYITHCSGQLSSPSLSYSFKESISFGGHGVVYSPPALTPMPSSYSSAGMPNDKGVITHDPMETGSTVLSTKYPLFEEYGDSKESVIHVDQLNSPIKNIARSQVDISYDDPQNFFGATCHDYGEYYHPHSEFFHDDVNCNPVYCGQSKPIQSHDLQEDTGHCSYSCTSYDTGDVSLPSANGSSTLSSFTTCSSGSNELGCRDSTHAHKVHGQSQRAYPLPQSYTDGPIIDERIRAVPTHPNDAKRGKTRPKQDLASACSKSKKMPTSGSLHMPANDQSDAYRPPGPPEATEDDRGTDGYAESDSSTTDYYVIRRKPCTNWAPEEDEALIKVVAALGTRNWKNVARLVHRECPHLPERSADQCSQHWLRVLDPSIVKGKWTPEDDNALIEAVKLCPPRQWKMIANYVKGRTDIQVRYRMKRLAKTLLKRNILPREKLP

B1: cwp2-30/+8 (dsDNA)
DNA 1: CAGCAGCTCAACAGTGGCTGGGAAAATAAAATGATCGC
DNA 2: GCGATCATTTTATTTTCCCAGCCACTGTTGAGCTGCTG
B2: cwp3-30/+10 (dsDNA)
DNA 1: GTCTTTCCCAAAAAATAAGTTACTACTGATATGTTTTCTC
DNA 2: GAGAAAACATATCAGTAGTAACTTATTTTTTGGGAAAGAC
B3: poly(A) (dsDNA)
DNA 1: AAAAAAAAAAAAAAAAAAAAAAA
DNA 2: TTTTTTTTTTTTTTTTTTTTTTT
B4: cwp1-45/-1 (dsDNA)
DNA 1: GTTTACAACTCTCAGATCAAGAAACACAGAAATAAAATATCAGGG
DNA 2: CCCTGATATTTTATTTCTGTGTTTCTTGATCTGAGAGTTGTAAAC
B5: topo II-85/-40 (dsDNA)
DNA 1: TGTAAATCAATATTATCGTCCTACAGCTGCTAGCTTGGTGACAGGA
DNA 2: TCCTGTCACCAAGCTAGCAGCTGTAGGACGATAATATTGATTTACA
B6: poly(A) with TC insertion (dsDNA)
DNA 1: AAAAAAAAAAATCAAAAAAAAAA
DNA 2: TTTTTTTTTTGATTTTTTTTTTT
B7: cwp1-90/-46 (dsDNA)
DNA 1: CTGGCTAACAGTCTACAGTCTACAATTTACAGTATACAATCTACA
DNA 2: TGTAGATTGTATACTGTAAATTGTAGACTGTAGACTGTTAGCCAG
B8: ran-51/-20 (dsDNA)
DNA 1: TAAAATAAATTAAATCGAAATTAAAACTTTAA
DNA 2: TTAAAGTTTTAATTTCGATTTAATTTATTTTA
B9: poly(A) with TT insertion (dsDNA)
DNA 1: AAAAAAAAAAATTAAAAAAAAAA
DNA 2: TTTTTTTTTTAATTTTTTTTTTT
B10: 18S-60/-31 (dsDNA)
DNA 1: CCGTGCCAGGCGGCGGCCCCCGCGCAGGGA
DNA 2: TCCCTGCGCGGGGGCCGCCGCCTGGCACGG
B11: 18S-30/-1 (dsDNA)
DNA 1: GGCGCCCGGCCCGCGGCGCCCGCGCCCGGC
DNA 2: GCCGGGCGCGGGCGCCGCGGGCCGGGCGCC

Experiments:
Topo IIC [1] = target: T1, Topo IIC; assay: competition; 200-fold excess vs labeled IIBS; EMSA: 0.02 pmol 5'-labeled probe, 5 ng protein, 20 ul, 0.5 ug poly(dI-dC), 15 min, room temperature, 6% acrylamide gel; buffer, salt and pH only by citation; conditions: protein: recombinant; tags: C-terminal V5-His; chain copies: 2
Topo IIC [2] = target: T1, Topo IIC; assay: EMSA; EMSA: 0.02 pmol 5'-labeled probe, 5 ng protein, 20 ul, 0.5 ug poly(dI-dC), 15 min, room temperature, 6% acrylamide gel; buffer, salt and pH only by citation; conditions: protein: recombinant; tags: C-terminal V5-His; chain copies: 2
Myb2 = target: T2, Myb2; assay: as above; conditions: protein: recombinant

Binder	binding result (Topo IIC [1])	also measured
B1	binds	
B2	binds	
B3	binds	
B4		binding result (Topo IIC [2]): binds
B5		binding result (Myb2; label: 5'-32P): binds
B6	binds	
B7		binding result (Myb2; label: 5'-32P for Myb2): binds
B8	binds	
B9	binds	
B10		binding result (Topo IIC [2]): no binding
B11		binding result (Topo IIC [2]): no binding
